Laboratory results from publication PMC10993888.

Legend:
[1] = target: MERS-CoV RBD (MERS-CoV, UniProt K9N5Q8 367-606); conditions: protein: commercial; label: 3'-biotin-TEG (SPR)
[2] = target: SARS-CoV-1 RBD (SARS-CoV-1, UniProt P59594 306-527); conditions: protein: commercial; label: 3'-biotin-TEG (SPR)
[3] = target: SARS-CoV-2 spike S1 subunit (SARS-CoV-2, UniProt P0DTC2 16-685); experiment: SPR; conditions: protein: commercial

| Binder | Kd [1] | Kd [2] | binding result [3] |
| --- | --- | --- | --- |
| GGGTGAATCTATGGGGTGGGCAGGGG (XNA) [SPA1-M13] | 4 nM | 8.7 nM |  |
| GGGTGAATCTATGGGGTGGGCAGGGG (XNA) [SPA1-M12] |  |  | binds |
